Experiment [1] has as its target ferroportin endogenously expressed on T47D cells (HTB 133, ATCC) (human) (UniProt Q9NP59). Description: cell-based or functional assay.
For experiment [2], the target named is T1, ferroportin fused to green fluorescent protein (Mus musculus, UniProt Q9JHI9).
T1 construct: expressed in transfected cells
T1 sequence (Q9JHI9 1-570): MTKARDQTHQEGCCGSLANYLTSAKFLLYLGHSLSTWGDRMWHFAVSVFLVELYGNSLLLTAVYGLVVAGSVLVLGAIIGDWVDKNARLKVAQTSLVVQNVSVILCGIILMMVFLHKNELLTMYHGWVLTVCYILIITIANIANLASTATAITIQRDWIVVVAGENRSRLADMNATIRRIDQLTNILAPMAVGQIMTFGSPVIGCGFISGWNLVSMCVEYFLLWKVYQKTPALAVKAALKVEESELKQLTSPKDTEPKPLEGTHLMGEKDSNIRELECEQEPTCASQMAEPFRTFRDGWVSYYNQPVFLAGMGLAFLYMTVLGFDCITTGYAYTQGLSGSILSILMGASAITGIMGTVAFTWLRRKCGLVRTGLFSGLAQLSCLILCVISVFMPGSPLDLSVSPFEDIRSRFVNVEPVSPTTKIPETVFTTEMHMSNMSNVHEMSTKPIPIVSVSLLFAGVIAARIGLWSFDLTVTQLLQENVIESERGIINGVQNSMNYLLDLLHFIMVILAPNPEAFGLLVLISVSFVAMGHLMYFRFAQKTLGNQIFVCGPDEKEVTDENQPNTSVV
As to conditions: read-out: EC50 (loss of fluorescence); 24 hours incubation; Hep25 preparations; cited from earlier work.

For experiment [3], the target named is human ferroportin (SLC40A1) fused in frame with GFP, stably expressed in HEK293 cells (human) (UniProt Q9NP59). Description: cell-based or functional assay.
Experiment [4] has as its target T2, ferroportin (Homo sapiens, UniProt Q9NP59).
T2 sequence (Q9NP59 1-571): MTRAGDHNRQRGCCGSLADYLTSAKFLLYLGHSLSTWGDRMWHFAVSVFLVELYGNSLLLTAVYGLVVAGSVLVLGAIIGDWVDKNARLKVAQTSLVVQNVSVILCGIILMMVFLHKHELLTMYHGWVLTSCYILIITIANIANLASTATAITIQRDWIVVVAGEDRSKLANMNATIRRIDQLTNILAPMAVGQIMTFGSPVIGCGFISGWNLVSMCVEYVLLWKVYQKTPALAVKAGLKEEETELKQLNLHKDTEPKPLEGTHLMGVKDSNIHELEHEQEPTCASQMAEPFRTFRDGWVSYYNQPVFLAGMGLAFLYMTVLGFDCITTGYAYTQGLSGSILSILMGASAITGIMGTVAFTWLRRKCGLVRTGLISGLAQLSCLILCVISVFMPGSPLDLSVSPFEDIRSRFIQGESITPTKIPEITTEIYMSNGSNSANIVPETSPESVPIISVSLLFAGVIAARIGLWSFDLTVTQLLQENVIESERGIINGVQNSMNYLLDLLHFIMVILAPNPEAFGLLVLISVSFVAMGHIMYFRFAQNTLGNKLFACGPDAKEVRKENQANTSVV
Description: FPN activity assay: internalization of ferroportin-GFP in stably transfected HEK293 cells. The experiment is classed as cell-based. On the set-up: expressed in transfected cells. On the procedure:
Peptide analogues were tested in vitro for induction of internalization of the human ferroportin protein. Following internalization, the ferroporin protein is degraded. The assay used (FPN activity assay) measures a decrease in fluorescence of the receptor. The cDNA encoding the human ferroportin (SLC40A1) was cloned from a cDNA clone from Origene (NM_014585). The DNA encoding the ferroportin was amplified by PCR using primers also encoding terminal restriction sites for subcloning, but without the termination codon. The ferroportin receptor was subcloned into a mammalian GFP expression vector containing a neomycin (G418) resistance marker in such that the reading frame of the ferroportin was fused in frame with the GFP protein. The fidelity of the DNA encoding the protein was confirmed by DNA sequencing. HEK293 cells were used for transfection of the ferroportin-GFP receptor expression plasmid. The cells were grown according to standard protocol in growth medium and transfected with the plasmids using Lipofectamine (manufacturer's protocol, Invitrogen). […] The EC50 of these reference compounds for ferroportin internalization/degradation was determined according to the FPN activity assay described above. […]

Experiment [5] deals with T2, ferroportin. Description: T47D cell-based ferroportin internalization assay in presence of 0.5% mouse serum albumin (MSA). Set-up: a human breast carcinoma adherent cell line which endogenously expresses ferroportin; host or cells: T47D. The note with it: Table 1C. The protocol:
The potency of the peptides in causing ferroportin internalization was evaluated in a T47D cell-based assay. […] In this internalization assay, the potency of the test peptides was evaluated in the presence of serum albumin, which is the main protein component in the blood. T47D cells were maintained in RPMI media (containing required amount of fetal bovine serum) and regularly sub-cultured. In preparation for the assay, the cells were seeded in 96-well plates at a density of 80-100 k cells per well in 100 ul volume and allowed to rest overnight. On the next day, test peptides were first prepared in dilution series (10-point series, starting concentration of ˜5 μM, typically 3-4×fold dilution steps), all with 0.5% mouse serum albumin (MSA purified from mouse serum; Sigma, A3139). The test peptide dilution series were allowed to incubate at room temperature for 30 min. Then the media was aspirated from the 96-well cell plate and test peptide dilution series were added. […] The Median Fluorescence Intensity (MFI) of the AF647-positive population was measured (after removing dead cells and non-singlets from the analysis). […] The IC50 potencies were calculated by using 4-parameter non-linear fitting function in Graphpad Prism, and the results are provided in Table 1C.

Like-named read-outs stand apart in the source and are kept apart here. A value given as a limit tells only on which side of the number the result lay.

Consider 13 compounds from US20250170216A1 (Protagonist Therapeutics, Inc., priority 2022, published 2025).

The EC50 is the concentration that produces a half-maximal response. As a reminder, the IC50 is the concentration at which inhibition is half-maximal.

In turn, “Isovaleric_Acid-E-C-H-DIP-P-C-I-dK-DIP-(NMe_Lys_AlbuTag)-dK-C-am-Trimethylbenzene (peptide)” returned an IC50: T47D MSA (nM), T47D internalization assay; *=>500 nM in experiment [1] above 500 nM.

As to `CC[C@H](C)[C@@H]1NC(=O)[C@@H](NC(=O)[C@@H](NC(=O)[C@@H]2CCCN2C(=O)[C@H](Cc2ccccc2)NC(=O)[C@H](Cc2c[nH]cn2)NC(=O)[C@@H](NC(=O)[C@@H](N)CC(=O)O)[C@@H](C)O)[C@@H](C)CC)CSSC[C@@H](C(=O)N[C@@H](CCCCN)C(=O)N[C@H](C(=O)O)[C@@H](C)O)NC(=O)[C@@H]2CSSC[C@@H]3NC(=O)[C@@H]4CSSC[C@H](NC(=O)[C@H](Cc5ccccc5)NC1=O)C(=O)N[C@@H](CSSC[C@H](NC(=O)[C@H](CCCCN)NC(=O)[C@H](CO)NC(=O)[C@H](CCCNC(=N)N)NC(=O)[C@H](Cc1c[nH]cn1)NC3=O)C(=O)NCC(=O)N[C@@H](CCSC)C(=O)N2)C(=O)NCC(=O)N4` [Hepcidin, Hy-DTHFPIC(1)IFC(2)C(3)GC(2)C(4)HRSKC(3)GMC(4)C(1)KT-OH], the EC50 in experiment [2] is 0.005 to 0.015 µM.

With RI-Mini Hepcidin (peptide), the Potency EC50 (nM), FPN activity assay in experiment [3] was above 10000 nM.

Compound “Isovaleric_Acid-E-T-H-DIP-P-C-I-[Lys_PEG12_C12_Diacid]-bhF-dK-Pen-NH2 (peptide)” had an IC50: FPN (nM), FPN internalization assay; *=IC50>500 nM in experiment [3] above 500 nM.

Regarding “Isovaleric_Acid-E-T-H-DIP-P-C-I-[Lys_PEG12_C6_Diacid]-bhF-[dLys_PEG11_OMe]-Pen-NH2 (peptide)”, the IC50: T47D MSA (nM), T47D internalization assay; *=>500 nM in experiment [1] is above 500 nM.

For `CC[C@H](C)[C@@H]1NC(=O)[C@@H](NC(=O)[C@@H]2CCCN2C(=O)[C@@H](NC(=O)[C@H](Cc2cnc[nH]2)NC(=O)[C@@H](NC(=O)[C@H](CCC(=O)O)NC(=O)CC(C)C)[C@@H](C)O)C(c2ccccc2)c2ccccc2)CSSC(C)(C)[C@@H](C(N)=O)NC(=O)[C@@H](CCCCN)NC(=O)C[C@H](Cc2ccccc2)NC(=O)[C@H](CCCCNC(=O)CCOCCOCCOCCOCCOCCOCCOCCOCCOCCOCCOCCOCCNC(=O)CCCCCCCCCCC(=O)O)NC1=O` [compound 4], in experiment [4] (Table 1C, FPN internalization assay, read-out: IC50: FPN), the DC50 was above 0.5 µM. The IC50 in experiment [5] is 0.011 to 0.1 µM.

As for `CC[C@@H](C)[C@@H](NC(=O)[C@H](N)Cc1ccccc1)C(=O)N[C@H](CS)C(=O)N[C@@H](C(=O)N1CCC[C@@H]1C(=O)N[C@H](Cc1ccccc1)C(=O)N[C@H](Cc1c[nH]cn1)C(=O)N[C@@H](C(=O)N[C@H](CC(=O)O)C(N)=O)[C@H](C)O)[C@H](C)CC` [RI-Mini Hepcidin, Hy-DPhe-DIle-DCys-DIle-DPro-DPhe-DHis-DThr-DAsp-NH2], the DC50 in experiment [4] (Table 6 reference compounds, read-out: Potency EC50) was above 10 µM.

In turn, Hepcidin (peptide) had a Potency EC50 (nM), FPN activity assay in experiment [3] of 34 nM.

“Isovaleric_Acid-E-T-H-DIP-P-C-I-[Lys_1PEG2_1PEG2_Ahx_C4_Diacid]-bhF-[dLys_PEG11_OMe]-C-NH2 (peptide)”: in experiment [3], the IC50: FPN (nM), FPN internalization assay; *=IC50>500 nM is above 500 nM.

“Isovaleric_Acid-E-T-H-DIP-P-C-I-dK-bhF-(Lys_Dap_C8_Diacid)-dK-C-NH2 (peptide)” came in with an IC50: T47D MSA (nM), T47D internalization assay; *=>500 nM in experiment [1] above 500 nM.

With “Isovaleric_Acid-E-hSer-H-DIP-P-C-I-[Lys_1PEG2_1PEG2_Ahx_C18_Diacid]-bhF-[dLys_PEG11_OMe]-C-NH2 (peptide)”, in experiment [1], the IC50: T47D MSA (nM), T47D internalization assay; *=>500 nM was above 500 nM.

For the compound Mini-Hepcidin 1-9 (peptide), in experiment [3], the Potency EC50 (nM), FPN activity assay is 712 nM.

With “Isovaleric_Acid-E-C-H-DIP-P-C-I-dK-(NMe_Lys_AlbuTag)-dK-C-NH2-Trimethylbenzene (peptide)”, the IC50: FPN (nM), FPN internalization assay; *=IC50>500 nM in experiment [3] was above 500 nM. Also, in experiment [1], the IC50: T47D MSA (nM), T47D internalization assay; *=>500 nM is above 500 nM.
